{
  "source": "paper PMC3824023",
  "biological_target": "microtubules polymerised from bovine brain tubulin (bovine) (UniProt Q6B856)",
  "sequence (Q6B856 whole entry, looked up, the tested form may be a part)": "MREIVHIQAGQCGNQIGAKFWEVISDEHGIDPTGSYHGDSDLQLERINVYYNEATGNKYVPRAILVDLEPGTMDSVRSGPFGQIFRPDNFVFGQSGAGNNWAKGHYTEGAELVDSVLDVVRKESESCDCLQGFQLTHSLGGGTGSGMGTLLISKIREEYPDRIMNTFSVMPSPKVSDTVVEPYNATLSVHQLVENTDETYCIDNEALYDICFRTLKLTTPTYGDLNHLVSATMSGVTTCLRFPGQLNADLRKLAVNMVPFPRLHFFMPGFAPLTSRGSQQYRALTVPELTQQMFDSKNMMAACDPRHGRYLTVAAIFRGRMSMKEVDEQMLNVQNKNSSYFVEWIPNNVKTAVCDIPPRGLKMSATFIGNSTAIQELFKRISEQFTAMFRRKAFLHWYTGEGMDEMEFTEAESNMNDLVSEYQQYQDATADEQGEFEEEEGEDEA",
  "data": [
    {"binder": "KIF17M-490 (C-terminally truncated KIF17, amino acids 1-490: motor, neck and first coiled-coil domains) (domain or fragment) MASEAVKVVVRCRPMNQRERELRCQPVVTVDCARAQCCIQNPGAADEPPKQFTFDGAYHVDHVTEQIYNEIAYPLVEGVTEGYNGTIFAYGQTGSGKSFTMQGLPDPPSQRGIIPRAFEHVFESVQCAENTKFLVRASYLEIYNEDVRDLLGADTKQKLELKEHPEKGVYVKGLSMHTVHSVAQCEHIMETGWKNRSVGYTLMNKDSSRSHSIFTISIEMSAVDERGKDHLRAGKLNLVDLAGSERQSKTGATGERLKEATKINLSLSALGNVISALVDGRCKHVPYRDSKLTRLLQDSLGGNTKTLMVACLSPADNNYDETLSTLRYANRAKNIRNKPRINEDPKDALLREYQEEIKKLKAILTQQMSPSSLSALLSRQVPPDPVQVEEKLLPQPVIQHDVEAEKQLIREEYEERLARLKADYKAEQESRARLEEDITAMRNSYDVRLSTLEENLRKETEAVLQVGVLYKAEVMSRAEFASSAEYPPAF", "values": [
      {"measurement": "K (0.5, MT) of MT-stimulated ATPase, KIF17M-490 alone", "result": 1.3, "unit": "µM"},
      {"measurement": "K (0.5, MT) of MT-stimulated ATPase, KIF17M-490 with EB1 (2x molar ratio)", "result": 0.7, "unit": "µM"},
      {"measurement": "K (0.5, MT) of MT-stimulated ATPase, KIF17M-490 with equimolar KIF17-tail", "result": 0.4, "unit": "µM"}
    ]}
  ]
}
